B1: MEDI8852 UCA VH V65P/VL G95P IgG (antibody, V domains shown)
VH: QVQLQQSGPGLVKPSQTLSLTCAISGDSVSSNSAAWNWIRQSPSRGLEWLGRTYYRSKWYNDYAPSVKSRITINPDTSKNQFSLQLNSVTPEDTAVYYCARGGHITIFGVNIDAFDIWGQGTMVTVSS
VL: DIQMTQSPSSLSASVGDRVTITCRASQSISSYLNWYQQKPGKAPKLLIYAASSLQSGVPSRFSGSGSGTDFTLTISSLQPEDFATYYCQQSRTFPQGTKVEIK
B2: mAb114 VH D42G-A68T-S79Y IgG (antibody, V domains shown)
VH: EVQLVESGGGLIQPGGSLRLSCAASGFALRMYDMHWVRQTIGKRLEWVSAVGPSGDTYYADSVKGRFTVSRENAKNSLYLQMNSLTAGDTAIYYCVRSDRGVAGLFDSWGQGILVTVSS
VL: DIQMTQSPSSLSASVGDRITITCRASQAFDNYVAWYQQRPGKVPKLLISAASALHAGVPSRFSGSGSGTHFTLTISSLQPEDVATYYCQNYNSAPLTFGGGTKVEIK
B3: mAb114 VH A68T-I113T / VL V43A IgG (antibody, V domains shown)
VH: EVQLVESGGGLIQPGGSLRLSCAASGFALRMYDMHWVRQTIDKRLEWVSAVGPSGDTYYADSVKGRFTVSRENAKNSLSLQMNSLTAGDTAIYYCVRSDRGVAGLFDSWGQGTLVTVSS
VL: DIQMTQSPSSLSASVGDRITITCRASQAFDNYVAWYQQRPGKAPKLLISAASALHAGVPSRFSGSGSGTHFTLTISSLQPEDVATYYCQNYNSAPLTFGGGTKVEIK
B4: mAb114 VH I41P-D42G-A68T-S79Y-I113T / VL V43A IgG (antibody, V domains shown)
VH: EVQLVESGGGLIQPGGSLRLSCAASGFALRMYDMHWVRQTPGKRLEWVSAVGPSGDTYYADSVKGRFTVSRENAKNSLYLQMNSLTAGDTAIYYCVRSDRGVAGLFDSWGQGTLVTVSS
VL: DIQMTQSPSSLSASVGDRITITCRASQAFDNYVAWYQQRPGKAPKLLISAASALHAGVPSRFSGSGSGTHFTLTISSLQPEDVATYYCQNYNSAPLTFGGGTKVEIK
B5: mAb114 VH A68T-E72D-S79Y-I113T / VL V43A IgG (antibody, V domains shown)
VH: EVQLVESGGGLIQPGGSLRLSCAASGFALRMYDMHWVRQTIDKRLEWVSAVGPSGDTYYADSVKGRFTVSRDNAKNSLYLQMNSLTAGDTAIYYCVRSDRGVAGLFDSWGQGTLVTVSS
VL: DIQMTQSPSSLSASVGDRITITCRASQAFDNYVAWYQQRPGKAPKLLISAASALHAGVPSRFSGSGSGTHFTLTISSLQPEDVATYYCQNYNSAPLTFGGGTKVEIK
B6: mAb114 VH I41P-D42G-A68T-S79Y-I113T IgG (antibody, V domains shown)
VH: EVQLVESGGGLIQPGGSLRLSCAASGFALRMYDMHWVRQTPGKRLEWVSAVGPSGDTYYADSVKGRFTVSRENAKNSLYLQMNSLTAGDTAIYYCVRSDRGVAGLFDSWGQGTLVTVSS
VL: DIQMTQSPSSLSASVGDRITITCRASQAFDNYVAWYQQRPGKVPKLLISAASALHAGVPSRFSGSGSGTHFTLTISSLQPEDVATYYCQNYNSAPLTFGGGTKVEIK

Six molecules from US20250243261A1 can be followed below.

The first test concerns the target HA H4 Hubei, A/swine/Hubei/06/2009(H4N1) (Influenza A virus).
Experiment: not given
The Kd is the equilibrium constant for the complex coming apart. B1 yielded a dissociation constant (Kd) of 100 nM.

For a further test, the target named is full-length Ebola GP on pseudotyped lentivirus (Zaire ebolavirus) (UniProt Q05320). The experiment in a line: cell-based or functional assay.
The molecule B2 yielded an Ebola GP pseudotyped lentivirus IC50 of 1.2 nM. As to B3, the Ebola GP pseudotyped lentivirus IC50 was 1.1 nM. The molecule B4 registered an Ebola GP pseudotyped lentivirus IC50 of 1 nM.

Regarding B5, the Ebola GP pseudotyped lentivirus IC50 came out at 1.2 nM. For B6, the Ebola GP pseudotyped lentivirus IC50 was 1.2 nM.
